The record followed here is US20100035825A1 (University of California, published 2010).

Where a chain is given by its changes, count along the chain named.

T1: procaspase 8 (endogenous, mouse hepatic stellate cells) (mouse, UniProt O89110 1-480)
T1 construct: also called procaspases 8
T1 sequence (looked up): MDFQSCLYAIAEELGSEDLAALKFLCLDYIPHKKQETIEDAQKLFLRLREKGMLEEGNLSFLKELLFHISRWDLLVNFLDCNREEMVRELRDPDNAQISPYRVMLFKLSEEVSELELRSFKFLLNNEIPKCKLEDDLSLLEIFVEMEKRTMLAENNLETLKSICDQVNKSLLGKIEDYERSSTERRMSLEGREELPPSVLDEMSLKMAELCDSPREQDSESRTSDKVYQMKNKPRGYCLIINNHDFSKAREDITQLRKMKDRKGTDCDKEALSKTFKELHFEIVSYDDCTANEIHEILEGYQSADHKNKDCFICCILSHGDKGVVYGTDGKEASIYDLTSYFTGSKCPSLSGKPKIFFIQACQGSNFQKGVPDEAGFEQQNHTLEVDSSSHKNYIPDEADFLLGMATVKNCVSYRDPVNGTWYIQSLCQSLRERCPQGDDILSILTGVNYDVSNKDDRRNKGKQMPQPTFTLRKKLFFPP

T2: procaspase 1 (endogenous, mouse hepatic stellate cells) (mouse, UniProt P29452 1-402)
T2 construct: also called procaspases 1
T2 sequence (looked up): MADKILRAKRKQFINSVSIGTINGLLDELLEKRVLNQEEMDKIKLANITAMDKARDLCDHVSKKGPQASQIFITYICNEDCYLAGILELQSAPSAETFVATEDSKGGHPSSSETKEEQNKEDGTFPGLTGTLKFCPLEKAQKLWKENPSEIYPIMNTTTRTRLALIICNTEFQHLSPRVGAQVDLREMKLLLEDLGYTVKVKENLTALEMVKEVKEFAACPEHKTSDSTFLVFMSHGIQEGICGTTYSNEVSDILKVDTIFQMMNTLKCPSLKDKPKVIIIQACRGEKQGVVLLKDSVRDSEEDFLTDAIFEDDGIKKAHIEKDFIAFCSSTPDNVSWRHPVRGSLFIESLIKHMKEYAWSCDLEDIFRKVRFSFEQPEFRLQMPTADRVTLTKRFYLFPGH

T3: procaspase 9 (endogenous, mouse hepatic stellate cells) (mouse, UniProt Q8C3Q9 1-454)
T3 construct: also called effector procaspase 9
T3 sequence (looked up): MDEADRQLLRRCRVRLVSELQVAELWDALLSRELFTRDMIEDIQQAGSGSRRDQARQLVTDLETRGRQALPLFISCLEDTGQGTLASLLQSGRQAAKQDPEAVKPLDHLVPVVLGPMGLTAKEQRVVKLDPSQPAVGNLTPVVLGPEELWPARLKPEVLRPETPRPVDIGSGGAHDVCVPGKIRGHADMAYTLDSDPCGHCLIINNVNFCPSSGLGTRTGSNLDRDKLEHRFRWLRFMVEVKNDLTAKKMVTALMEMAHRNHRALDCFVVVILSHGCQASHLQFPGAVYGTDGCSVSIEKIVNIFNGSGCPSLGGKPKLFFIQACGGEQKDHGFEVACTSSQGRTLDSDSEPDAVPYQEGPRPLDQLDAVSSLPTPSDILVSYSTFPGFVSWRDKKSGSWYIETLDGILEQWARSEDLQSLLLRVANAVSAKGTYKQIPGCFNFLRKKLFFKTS

T4: procaspase 7 (endogenous, mouse hepatic stellate cells) (mouse, UniProt P97864 1-303)
T4 construct: also called effector procaspase 7
T4 sequence (looked up): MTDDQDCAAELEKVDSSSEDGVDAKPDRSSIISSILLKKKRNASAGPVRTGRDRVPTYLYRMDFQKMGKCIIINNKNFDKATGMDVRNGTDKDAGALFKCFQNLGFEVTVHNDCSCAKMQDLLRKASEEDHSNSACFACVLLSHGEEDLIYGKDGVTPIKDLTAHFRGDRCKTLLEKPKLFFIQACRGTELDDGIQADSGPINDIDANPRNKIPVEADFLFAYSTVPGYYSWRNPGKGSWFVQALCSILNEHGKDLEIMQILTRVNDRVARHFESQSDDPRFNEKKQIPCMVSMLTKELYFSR

T5: C/EBPβ-HA-Ala^217 (mouse, UniProt P28033 1-296, limits assumed)
T5 construct: not shown: HA (hemagglutinin) tag
T5 sequence: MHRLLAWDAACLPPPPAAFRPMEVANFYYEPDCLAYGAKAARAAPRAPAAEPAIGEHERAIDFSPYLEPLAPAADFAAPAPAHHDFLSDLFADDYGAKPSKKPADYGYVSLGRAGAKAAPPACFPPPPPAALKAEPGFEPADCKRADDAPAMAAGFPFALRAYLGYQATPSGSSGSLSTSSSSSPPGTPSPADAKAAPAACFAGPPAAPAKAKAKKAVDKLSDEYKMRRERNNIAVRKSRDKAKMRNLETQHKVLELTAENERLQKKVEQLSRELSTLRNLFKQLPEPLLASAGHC

B1: C/EBPβ-HA-Glu^217 (other, not shown: small tags and cut ends)
chain: T5 sequence with A217E
B2: C/EBPβ-PThr^217 (mouse C/EBPβ phosphorylated on Thr217) (other)
chain: T5 sequence with A217T
modifications: phosphothreonine at 217
notes: Endogenous, phosphorylated in stellate cells after CCl4 or on collagen type I
B3: purified recombinant procaspase 8 (human, Alexis Biochemicals) (enzyme, UniProt Q14790 217-479, looked up)
chain: SESQTLDKVYQMKSKPRGYCLIINNHNFAKAREKVPKLHSIRDRNGTHLDAGALTTTFEELHFEIKPHDDCTVEQIYEILKIYQLMDHSNMDCFICCILSHGDKGIIYGTDGQEAPIYELTSQFTGLKCPSLAGKPKVFFIQACQGDNYQKGIPVETDSEEQPYLEMDLSSPQTRYIPDEADFLLGMATVNNCVSYRNPAEGTWYIQSLCQSLRERCPRGDDILTILTEVNYEVSNKDDKKNMGKQMPQPTFTLRKKLVFPSD
notes: also called recombinant caspase 8; procaspases 8; not shown: 21 amino acid linker at the N-terminus from the expression vector
B4: procaspase 3 (endogenous, mouse hepatic stellate cells) (enzyme, UniProt P70677 1-277, looked up)
chain: MENNKTSVDSKSINNFEVKTIHGSKSVDSGIYLDSSYKMDYPEMGICIIINNKNFHKSTGMSSRSGTDVDAANLRETFMGLKYQVRNKNDLTREDILELMDSVSKEDHSKRSSFVCVILSHGDEGVIYGTNGPVELKKLTSFFRGDYCRSLTGKPKLFIIQACRGTELDCGIETDSGTDEEMACQKIPVEADFLYAYSTAPGYYSWRNSKDGSWFIQSLCSMLKLYAHKLEFMHILTRVNRKVATEFESFSLDSTFHAKKQIPCIVSMLTKELYFYH
notes: also called effector procaspase 3

In test [1] the target is T1, procaspase 8 (endogenous, mouse hepatic …). Description: anti-HA co-immunoprecipitation and immunoblot, transfected activated stellate cells. (In general: In western blotting, separated proteins are transferred to a membrane and probed.)
Source text: (§1) The expressed peptides were immunoprecipitated with anti-HA antibodies.
Test [2] concerns the target T2, procaspase 1 (endogenous, mouse hepatic …). Described as above.
Source text: as §1
Test [3] addresses B3. As to the kind of experiment: co-immunoprecipitation of purified recombinant proteins (C/EBPβ peptides 200 µM), immunoblot, densitometry; reference C/EBPβ-HA-Ala217.
Test [4] deals with T3, procaspase 9 (endogenous, mouse hepatic …). Description: C/EBPβ immunoprecipitation and immunoblot, stellate cells of CCl4-treated C/EBPβ+/+ mice.
Test [5] concerns the target T4, procaspase 7 (endogenous, mouse hepatic …). Described as above.
The target in test [6] is T5, C/EBPβ-HA-Ala^217. Description: co-immunoprecipitation of purified recombinant proteins.
In test [7] the target is B2. As to the kind of experiment: C/EBPβ immunoprecipitation and immunoblot, stellate cells of CCl4-treated C/EBPβ+/+ mice.

As for B1, the binding result in test [1] and in test [2] was “binds” throughout. For the same molecule, in test [3], the “fold more co-immunoprecipitated than the Ala^217 peptides (densitometry)” value is 12 fold.

As for B2, the binding result in test [4] and in test [5] was “no binding” throughout. For B3, the binding result in test [6] is “no binding”.

For the molecule B4, the binding result in test [7] is listed as “no binding”.
